# Assay results: PMC4467794 (Cell, 2015)
# T1: Mcx1^Y174A-3xFLAG (pore-1 loop Y174A), purified recombinant (S. cerevisiae, UniProt P38323 14-520, Y174A)
# T1 sequence (looked up): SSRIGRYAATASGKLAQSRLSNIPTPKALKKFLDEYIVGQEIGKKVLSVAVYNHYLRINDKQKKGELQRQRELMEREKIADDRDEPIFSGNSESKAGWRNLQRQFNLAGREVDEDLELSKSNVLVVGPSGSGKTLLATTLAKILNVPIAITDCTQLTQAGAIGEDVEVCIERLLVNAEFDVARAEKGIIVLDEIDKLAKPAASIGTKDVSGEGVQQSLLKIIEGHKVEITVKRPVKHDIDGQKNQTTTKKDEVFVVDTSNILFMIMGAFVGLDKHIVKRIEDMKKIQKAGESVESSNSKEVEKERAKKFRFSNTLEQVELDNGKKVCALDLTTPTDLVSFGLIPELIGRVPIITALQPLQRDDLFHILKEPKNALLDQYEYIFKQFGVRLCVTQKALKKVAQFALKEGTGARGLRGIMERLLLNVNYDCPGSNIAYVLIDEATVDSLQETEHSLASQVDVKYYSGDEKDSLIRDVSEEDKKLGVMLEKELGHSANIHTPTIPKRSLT
# Molecular target: T1, Mcx1^Y174A-3xFLAG (pore-1 loop Y174A), …
# Assay: co-IP
binder,measurement,value
"apoHem1 (PLP-free Hem1, yeast ALA synthase), purified recombinant (enzyme) not shown",fold amount bound relative to holoHem1,~10 fold
